Data as given in the supplement of paper PMC7877785.
± gives the uncertainty stated by the source.

Assay: self-splicing fitness, log relative to wild type (ln ratio); higher = more splicing; Tetrahymena group I intron in knt gene, E. coli kanamycin selection, DiMSum; sequences stand for … in CUCUCU…GGAGGGAAAAGUUAUCAGGCAUGCACCUGGUAGCUAGUCUUUAAACCAAUAGAUUGCAUCGGUUUAAAAGGCAAGACCGUCAAAUUGCGGGAAAGGGGUCAACAGCCGUUCAGUACCAAGUCUCAGGGGAAACUUUGAGAUGGCCUUGCAAAGGGUAUGGUAAUAAGCUGACGGACAUGGUCCUAACCACGCAGCCAAGUCCUAAGUCAACAGAUCUUCUGUUGAUAUGGAUGCAGUUCACAGACUAAAUGUCGGUCGGGGAAGAUGUAUUCUUCUCAUAAGAUAUAGUCGGACCUCUCCUUAAUGGGAGCUAGCGGAUGAAGUGAUGCAACACUGGAGCCGCUGGGAACUAAUUUGUAUGCGAAAGUAUAUUGAUUAGUUUUGGAGUACUCGUGGUCG
In short: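 Six replicate transformations of E. coli BL21(DE3) with a pET-22b(+) library were grown overnight at 37°C or 30°C. The library randomised all eight P1ex-region intron nucleotides, the intron lying in the knt kanamycin-resistance gene, and plates were LB agar with or without 25 μg/mL kanamycin plus 100 μg/mL carbenicillin, 50 μM IPTG and 0.2% rhamnose. Pooled colonies were amplicon-sequenced on an Illumina HiSeq 2500, and fitness is the DiMSum error-weighted combination of wild-type-normalised replicate fold changes, kanamycin versus none.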

GUGCAGCAAUAUUACGCCCU
self-splicing fitness (ln) (30 °C): -1.57 ± 0.14
self-splicing fitness (ln) (37 °C): -0.805 ± 0.16

GUGCAGCAAUAUUACGCCUU
self-splicing fitness (ln) (30 °C): -1.26 ± 0.16
self-splicing fitness (ln) (37 °C): -0.215 ± 0.14

GUGCAGCAAUAUUACGCGGC
self-splicing fitness (ln) (30 °C): -1.7 ± 0.14
self-splicing fitness (ln) (37 °C): -2.51 ± 0.23

GUGCAGCAAUAUUACGCGUG
self-splicing fitness (ln) (30 °C): -1.52 ± 0.11
self-splicing fitness (ln) (37 °C): -1.66 ± 0.16

GUGCAGCAAUAUUACGGACC
self-splicing fitness (ln) (30 °C): -0.711 ± 0.31

GUGCAGCAAUAUUACGGCCU
self-splicing fitness (ln) (30 °C): -0.775 ± 0.11
self-splicing fitness (ln) (37 °C): 0.175 ± 0.13

GUGCAGCAAUAUUACGGCUA
self-splicing fitness (ln) (30 °C): -0.0246 ± 0.077
self-splicing fitness (ln) (37 °C): 0.17 ± 0.096

GUGCAGCAAUAUUACGGUGG
self-splicing fitness (ln) (30 °C): -1.63 ± 0.11
self-splicing fitness (ln) (37 °C): -1.16 ± 0.13

GUGCAGCAAUAUUACGGUUG
self-splicing fitness (ln) (30 °C): -2.62 ± 0.19
self-splicing fitness (ln) (37 °C): -1.95 ± 0.16

GUGCAGCAAUAUUACGUACG
self-splicing fitness (ln) (30 °C): -2.19 ± 0.086
self-splicing fitness (ln) (37 °C): -1.18 ± 0.08

GUGCAGCAAUAUUACGUCCU
self-splicing fitness (ln) (30 °C): -0.637 ± 0.12
self-splicing fitness (ln) (37 °C): -0.541 ± 0.096

GUGCAGCAAUAUUACGUCGA
self-splicing fitness (ln) (30 °C): -1.22 ± 0.096
self-splicing fitness (ln) (37 °C): -0.927 ± 0.1

GUGCAGCAAUAUUACGUGGU
self-splicing fitness (ln) (30 °C): -2.55 ± 0.078
self-splicing fitness (ln) (37 °C): -1.1 ± 0.091

GUGCAGCAAUAUUACGUUCG
self-splicing fitness (ln) (30 °C): -1.52 ± 0.09
self-splicing fitness (ln) (37 °C): -0.675 ± 0.14

GUGGAGCAAUAUUACGAAAC
self-splicing fitness (ln) (37 °C): -2.23 ± 0.3

GUGGAGCAAUAUUACGAAGG
self-splicing fitness (ln) (30 °C): -2.69 ± 0.27
self-splicing fitness (ln) (37 °C): -2 ± 0.4

GUGGAGCAAUAUUACGACCU
self-splicing fitness (ln) (30 °C): -1.22 ± 0.094
self-splicing fitness (ln) (37 °C): -0.548 ± 0.11

GUGGAGCAAUAUUACGAGAU
self-splicing fitness (ln) (30 °C): -3.23 ± 0.36
self-splicing fitness (ln) (37 °C): -2.22 ± 0.41

GUGGAGCAAUAUUACGAGCC
self-splicing fitness (ln) (37 °C): -1.59 ± 0.35

GUGGAGCAAUAUUACGCUAU
self-splicing fitness (ln) (30 °C): -2.85 ± 0.25

GUGGAGCAAUAUUACGCUCG
self-splicing fitness (ln) (30 °C): -1.35 ± 0.16
self-splicing fitness (ln) (37 °C): -1.39 ± 0.23

GUGGAGCAAUAUUACGGAGG
self-splicing fitness (ln) (30 °C): -2.41 ± 0.28
self-splicing fitness (ln) (37 °C): -0.95 ± 0.28

GUGGAGCAAUAUUACGGGGA
self-splicing fitness (ln) (30 °C): -3.12 ± 0.44
self-splicing fitness (ln) (37 °C): -2.65 ± 0.4

GUGGAGCAAUAUUACGGGUA
self-splicing fitness (ln) (30 °C): -2.09 ± 0.31
self-splicing fitness (ln) (37 °C): -2.4 ± 0.45

GUGGAGCAAUAUUACGGGUU
self-splicing fitness (ln) (30 °C): -3.16 ± 0.18
self-splicing fitness (ln) (37 °C): -3.15 ± 0.48

GUGGAGCAAUAUUACGUCGA
self-splicing fitness (ln) (30 °C): -3.42 ± 0.37
self-splicing fitness (ln) (37 °C): -1.48 ± 0.3

GUGGAGCAAUAUUACGUCUG
self-splicing fitness (ln) (37 °C): -1.75 ± 0.32

GUGGAGCAAUAUUACGUGUA
self-splicing fitness (ln) (30 °C): -2.68 ± 0.2
self-splicing fitness (ln) (37 °C): -2.85 ± 0.24

GUGGAGCAAUAUUACGUGUU
self-splicing fitness (ln) (30 °C): -4.54 ± 0.47

GUGGAGCAAUAUUACGUUUC
self-splicing fitness (ln) (30 °C): -3.39 ± 0.37
self-splicing fitness (ln) (37 °C): -1.9 ± 0.21

GUGUAGCAAUAUUACGAACU
self-splicing fitness (ln) (30 °C): -1.57 ± 0.25
self-splicing fitness (ln) (37 °C): -0.299 ± 0.2

GUGUAGCAAUAUUACGAAUG
self-splicing fitness (ln) (37 °C): -1.51 ± 0.25

GUGUAGCAAUAUUACGAAUU
self-splicing fitness (ln) (30 °C): -2.33 ± 0.064
self-splicing fitness (ln) (37 °C): -1.85 ± 0.097

GUGUAGCAAUAUUACGACAG
self-splicing fitness (ln) (30 °C): -2.07 ± 0.42

GUGUAGCAAUAUUACGACCU
self-splicing fitness (ln) (30 °C): -0.216 ± 0.27
self-splicing fitness (ln) (37 °C): 0.601 ± 0.24

GUGUAGCAAUAUUACGACUG
self-splicing fitness (ln) (30 °C): -1.71 ± 0.25
self-splicing fitness (ln) (37 °C): -1.47 ± 0.42

GUGUAGCAAUAUUACGAGUC
self-splicing fitness (ln) (30 °C): -1.74 ± 0.36
self-splicing fitness (ln) (37 °C): -1.03 ± 0.3

GUGUAGCAAUAUUACGAUCA
self-splicing fitness (ln) (30 °C): -0.818 ± 0.13
self-splicing fitness (ln) (37 °C): -0.543 ± 0.14

GUGUAGCAAUAUUACGCCCG
self-splicing fitness (ln) (30 °C): -2.51 ± 0.35
self-splicing fitness (ln) (37 °C): -0.74 ± 0.23

GUGUAGCAAUAUUACGCCGA
self-splicing fitness (ln) (37 °C): -2.39 ± 0.42

GUGUAGCAAUAUUACGCUAC
self-splicing fitness (ln) (30 °C): -2.35 ± 0.49

GUGUAGCAAUAUUACGGACU
self-splicing fitness (ln) (30 °C): -0.979 ± 0.1
self-splicing fitness (ln) (37 °C): -0.103 ± 0.12
